# Data as given in patent US20180371100A1 (Kyowa Kirin, published 2018).
# Several values for one entry are separate records, joined by “and”; a condition that tells them apart may be missing. Equal values may be shown once.
# T1: FLAG fusion human CRTH2 (human, UniProt Q9Y5Y4 1-395)
# T1 construct: Expressed on rat 3Y1-B cells; also called human CRTH2 with a C terminal to which a FLAG tag was added; not shown: FLAG tag at the C terminal
# T1 sequence: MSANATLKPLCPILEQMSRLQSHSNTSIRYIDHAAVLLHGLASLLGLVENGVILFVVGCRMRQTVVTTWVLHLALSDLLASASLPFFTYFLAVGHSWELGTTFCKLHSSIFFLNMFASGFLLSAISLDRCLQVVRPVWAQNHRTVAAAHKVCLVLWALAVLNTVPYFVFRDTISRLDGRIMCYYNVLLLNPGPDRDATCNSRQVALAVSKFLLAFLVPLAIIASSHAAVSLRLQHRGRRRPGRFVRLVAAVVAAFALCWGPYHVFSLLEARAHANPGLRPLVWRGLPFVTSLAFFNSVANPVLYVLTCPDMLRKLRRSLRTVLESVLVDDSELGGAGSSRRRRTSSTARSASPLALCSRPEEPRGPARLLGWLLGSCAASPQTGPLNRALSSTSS
# Target: T1, FLAG fusion human CRTH2
# Test: flow cytometry on FLAG fusion human CRTH2-expressing 3Y1-B cells; logistic fit of Geomean; ± is the standard error
# Description: FLAG fusion human CRTH2-expressing 3Y1-B cells were peeled using a 0.25% trypsin-EDTA (NACALAI TESQUE, Inc.), washed with PBS, and suspended with SM. Next, the cells were seeded in a 96-well plate such that one well has 1×10⁵ cells. Further, chLym2 or each of the humanized Lym2 antibodies was added at each final concentrations of 50000, 12500, 3125, 781, 195, 49, 12, and 3 ng/mL to cause a reaction at 4° C. for 60 minutes.
# After the cells were washed with SM, Goat F(ab′)₂ Anti-Human IgG PE (γchain specific) (Southern Biotech Inc.) diluted 500 times with SM was added to cause a reaction at 4° C. for 60 minutes. The cells were washed with SM and resuspended with 50 μL of SM, and the fluorescent intensity was measured by flow cytometry (BD Biosciences, FACS CantoII).
# The data was analyzed by FLowJo 7.65 (Tomy Digital Biology Co., Ltd.), curve fitting of the Geomean value in each concentration was performed using a Logistic curve, and the 50% effective concentration (EC₅₀) value of the binding of chLym2 and each humanized Lym2 antibody and the standard error (SE) value thereof were calculated using R language (Ver. 3.02) which is a language for statistical analysis.
row,Binder,EC50
1,"humanized Lym2 antibody LV0HV0 (antibody, V domains shown) VH: EVQLVESGGGVVQPGRSLRLSCAASGFTFSNYYMAWVRQAPGKGLEWVATISYDGSSTYYRDSVKGRFTISRDNAKNSLYLQMNSLRAEDTAVYYCARHRGYYYSGAGYFDYWGQGTMVTVSS VL: DIVMTQTPLSLPVTPGESASISCRSSQSLEYSDGYTYLEWYLQKPGQSPQVLIYGVSNRFSGVPDRFSGSGSGTDFTLKISRVEAEDVGVYYCFQATHDPLTFGQGTKLEIK",0.55 µg/mL and 0.87 µg/mL
2,"humanized Lym2 antibody LV0HV3 (antibody, V domains shown) VH: EVQLVESGGGVVQPGRSMRLSCAASGFTFSNYYMAWVRQAPGKGLEWVATISYDGSSTYYRDSVKGRFTISRDNAKNSLYLQMNSLRAEDTATYYCARHRGYYYSGAGYFDYWGQGVMVTVSS VL: DIVMTQTPLSLPVTPGESASISCRSSQSLEYSDGYTYLEWYLQKPGQSPQVLIYGVSNRFSGVPDRFSGSGSGTDFTLKISRVEAEDVGVYYCFQATHDPLTFGQGTKLEIK",0.69 µg/mL
3,"humanized Lym2 antibody LV1HV0 (antibody, V domains shown) VH: EVQLVESGGGVVQPGRSLRLSCAASGFTFSNYYMAWVRQAPGKGLEWVATISYDGSSTYYRDSVKGRFTISRDNAKNSLYLQMNSLRAEDTAVYYCARHRGYYYSGAGYFDYWGQGTMVTVSS VL: DIVMTQTPLSLPVTLGESASISCRSSQSLEYSDGYTYLEWYLQKPGQSPQVLIYGVSNRFSGVPDRFSGSGSGTDFTLKISRVEAEDVGVYYCFQATHDPLTFGQGTKLEIK",0.69 µg/mL
4,"humanized Lym2 antibody LV4HV0 (antibody, V domains shown) VH: EVQLVESGGGVVQPGRSLRLSCAASGFTFSNYYMAWVRQAPGKGLEWVATISYDGSSTYYRDSVKGRFTISRDNAKNSLYLQMNSLRAEDTAVYYCARHRGYYYSGAGYFDYWGQGTMVTVSS VL: DVVLTQTPLSLPVTLGESASISCRSSQSLEYSDGYTYLEWYLQKPGQSPQVLIYGVSNRFSGVPDRFSGSGSGTDFTLKISRVEPEDVGVYYCFQATHDPLTFGQGTKLEIK",0.74 µg/mL
5,"humanized Lym2 antibody LV3aHV4 (antibody, V domains shown) VH: EVQLVESGGGVVQPGRSMRLSCAASGFTFSNYYMAWVRQAPGKGLEWVATISYDGSSTYYRDSVKGRFTISRDNAKSSLYLQMNSLRAEDTATYYCARHRGYYYSGAGYFDYWGQGVMVTVSS VL: DVVLTQTPLSLPVTPGESASISCRSSQSLEYSDGYTYLEWYLQKPGQSPQVLIYGVSNRFSGVPDRFSGSGSGTDFTLKISRVEPEDVGVYYCFQATHDPLTFGQGTKLEIK",0.76 µg/mL
6,"humanized Lym2 antibody LV2aHV0 (antibody, V domains shown) VH: EVQLVESGGGVVQPGRSLRLSCAASGFTFSNYYMAWVRQAPGKGLEWVATISYDGSSTYYRDSVKGRFTISRDNAKNSLYLQMNSLRAEDTAVYYCARHRGYYYSGAGYFDYWGQGTMVTVSS VL: DIVLTQTPLSLPVTLGESASISCRSSQSLEYSDGYTYLEWYLQKPGQSPQVLIYGVSNRFSGVPDRFSGSGSGTDFTLKISRVEAEDVGVYYCFQATHDPLTFGQGTKLEIK",0.66 µg/mL
7,"humanized Lym2 antibody LV3bHV4 (antibody, V domains shown) VH: EVQLVESGGGVVQPGRSMRLSCAASGFTFSNYYMAWVRQAPGKGLEWVATISYDGSSTYYRDSVKGRFTISRDNAKSSLYLQMNSLRAEDTATYYCARHRGYYYSGAGYFDYWGQGVMVTVSS VL: DVVLTQTPLSLPVTLGESASISCRSSQSLEYSDGYTYLEWYLQKPGQSPQVLIYGVSNRFSGVPDRFSGSGSGTDFTLKISRVEAEDVGVYYCFQATHDPLTFGQGTKLEIK",0.53 µg/mL
8,"humanized Lym2 antibody LV2cHV4 (antibody, V domains shown) VH: EVQLVESGGGVVQPGRSMRLSCAASGFTFSNYYMAWVRQAPGKGLEWVATISYDGSSTYYRDSVKGRFTISRDNAKSSLYLQMNSLRAEDTATYYCARHRGYYYSGAGYFDYWGQGVMVTVSS VL: DVVLTQTPLSLPVTPGESASISCRSSQSLEYSDGYTYLEWYLQKPGQSPQVLIYGVSNRFSGVPDRFSGSGSGTDFTLKISRVEAEDVGVYYCFQATHDPLTFGQGTKLEIK",0.54 µg/mL
9,"humanized Lym2 antibody LV0HV4 (antibody, V domains shown) VH: EVQLVESGGGVVQPGRSMRLSCAASGFTFSNYYMAWVRQAPGKGLEWVATISYDGSSTYYRDSVKGRFTISRDNAKSSLYLQMNSLRAEDTATYYCARHRGYYYSGAGYFDYWGQGVMVTVSS VL: DIVMTQTPLSLPVTPGESASISCRSSQSLEYSDGYTYLEWYLQKPGQSPQVLIYGVSNRFSGVPDRFSGSGSGTDFTLKISRVEAEDVGVYYCFQATHDPLTFGQGTKLEIK",0.58 µg/mL and 0.67 µg/mL
10,"humanized Lym2 antibody LV0HV2a (antibody, V domains shown) VH: EVQLVESGGGVVQPGRSLRLSCAASGFTFSNYYMAWVRQAPGKGLEWVATISYDGSSTYYRDSVKGRFTISRDNAKNSLYLQMNSLRAEDTATYYCARHRGYYYSGAGYFDYWGQGVMVTVSS VL: DIVMTQTPLSLPVTPGESASISCRSSQSLEYSDGYTYLEWYLQKPGQSPQVLIYGVSNRFSGVPDRFSGSGSGTDFTLKISRVEAEDVGVYYCFQATHDPLTFGQGTKLEIK",0.65 µg/mL
11,"humanized Lym2 antibody LV2aHV4 (antibody, V domains shown) VH: EVQLVESGGGVVQPGRSMRLSCAASGFTFSNYYMAWVRQAPGKGLEWVATISYDGSSTYYRDSVKGRFTISRDNAKSSLYLQMNSLRAEDTATYYCARHRGYYYSGAGYFDYWGQGVMVTVSS VL: DIVLTQTPLSLPVTLGESASISCRSSQSLEYSDGYTYLEWYLQKPGQSPQVLIYGVSNRFSGVPDRFSGSGSGTDFTLKISRVEAEDVGVYYCFQATHDPLTFGQGTKLEIK",0.51 µg/mL
12,"humanized Lym2 antibody LV1HV4 (antibody, V domains shown) VH: EVQLVESGGGVVQPGRSMRLSCAASGFTFSNYYMAWVRQAPGKGLEWVATISYDGSSTYYRDSVKGRFTISRDNAKSSLYLQMNSLRAEDTATYYCARHRGYYYSGAGYFDYWGQGVMVTVSS VL: DIVMTQTPLSLPVTLGESASISCRSSQSLEYSDGYTYLEWYLQKPGQSPQVLIYGVSNRFSGVPDRFSGSGSGTDFTLKISRVEAEDVGVYYCFQATHDPLTFGQGTKLEIK",0.58 µg/mL
13,"humanized Lym2 antibody LV2bHV0 (antibody, V domains shown) VH: EVQLVESGGGVVQPGRSLRLSCAASGFTFSNYYMAWVRQAPGKGLEWVATISYDGSSTYYRDSVKGRFTISRDNAKNSLYLQMNSLRAEDTAVYYCARHRGYYYSGAGYFDYWGQGTMVTVSS VL: DIVMTQTPLSLPVTLGESASISCRSSQSLEYSDGYTYLEWYLQKPGQSPQVLIYGVSNRFSGVPDRFSGSGSGTDFTLKISRVEPEDVGVYYCFQATHDPLTFGQGTKLEIK",0.67 µg/mL
14,"humanized Lym2 antibody LV3aHV0 (antibody, V domains shown) VH: EVQLVESGGGVVQPGRSLRLSCAASGFTFSNYYMAWVRQAPGKGLEWVATISYDGSSTYYRDSVKGRFTISRDNAKNSLYLQMNSLRAEDTAVYYCARHRGYYYSGAGYFDYWGQGTMVTVSS VL: DVVLTQTPLSLPVTPGESASISCRSSQSLEYSDGYTYLEWYLQKPGQSPQVLIYGVSNRFSGVPDRFSGSGSGTDFTLKISRVEPEDVGVYYCFQATHDPLTFGQGTKLEIK",0.7 µg/mL
15,"humanized Lym2 antibody LV2bHV4 (antibody, V domains shown) VH: EVQLVESGGGVVQPGRSMRLSCAASGFTFSNYYMAWVRQAPGKGLEWVATISYDGSSTYYRDSVKGRFTISRDNAKSSLYLQMNSLRAEDTATYYCARHRGYYYSGAGYFDYWGQGVMVTVSS VL: DIVMTQTPLSLPVTLGESASISCRSSQSLEYSDGYTYLEWYLQKPGQSPQVLIYGVSNRFSGVPDRFSGSGSGTDFTLKISRVEPEDVGVYYCFQATHDPLTFGQGTKLEIK",0.59 µg/mL
16,"humanized Lym2 antibody LV2cHV0 (antibody, V domains shown) VH: EVQLVESGGGVVQPGRSLRLSCAASGFTFSNYYMAWVRQAPGKGLEWVATISYDGSSTYYRDSVKGRFTISRDNAKNSLYLQMNSLRAEDTAVYYCARHRGYYYSGAGYFDYWGQGTMVTVSS VL: DVVLTQTPLSLPVTPGESASISCRSSQSLEYSDGYTYLEWYLQKPGQSPQVLIYGVSNRFSGVPDRFSGSGSGTDFTLKISRVEAEDVGVYYCFQATHDPLTFGQGTKLEIK",0.68 µg/mL
17,"humanized Lym2 antibody LV3bHV0 (antibody, V domains shown) VH: EVQLVESGGGVVQPGRSLRLSCAASGFTFSNYYMAWVRQAPGKGLEWVATISYDGSSTYYRDSVKGRFTISRDNAKNSLYLQMNSLRAEDTAVYYCARHRGYYYSGAGYFDYWGQGTMVTVSS VL: DVVLTQTPLSLPVTLGESASISCRSSQSLEYSDGYTYLEWYLQKPGQSPQVLIYGVSNRFSGVPDRFSGSGSGTDFTLKISRVEAEDVGVYYCFQATHDPLTFGQGTKLEIK",0.81 µg/mL
18,"humanized Lym2 antibody LV0HV2b (antibody, V domains shown) VH: EVQLVESGGGVVQPGRSMRLSCAASGFTFSNYYMAWVRQAPGKGLEWVATISYDGSSTYYRDSVKGRFTISRDNAKNSLYLQMNSLRAEDTAVYYCARHRGYYYSGAGYFDYWGQGVMVTVSS VL: DIVMTQTPLSLPVTPGESASISCRSSQSLEYSDGYTYLEWYLQKPGQSPQVLIYGVSNRFSGVPDRFSGSGSGTDFTLKISRVEAEDVGVYYCFQATHDPLTFGQGTKLEIK",0.72 µg/mL
